Measurements: the DeepSol protein solubility set

assay: soluble on expression in E. coli; label from the status in PepcDB or PDB records

Row | Sequence | soluble on expression in E. coli
1 | SVFKFIDLPQEEPRPSGGGKVTDLVLDNPHAQDCWPNQGHMDVQGLTVKYTEAGRSVLQNLSFTVEAGQSVGVLGRTGSGKSTLLSALLRLASTDGEISIDGVSWNSVTLQTWRKAFGVVPQKIFILTGTFRMNLDPHACHSDEELWRVAEEVGLKSVIEQFPDKLDFQLEDGGYVLSNGHKQLMCLARSILSKARILLLDEPSAYLDPITLQVLRKTLKQSFSNCTVILSEHRVEPLLECQSFLMIEGSSMKRYDSIQKLLNETSHLKQAISAAERLKLFPLHRLNSSKRPPQSQQPKITALQEEAEDEVQDTRL | not soluble
2 | SYTLPSLPYAYDALEPHFDKQTMEIHHTKHHQTYVNNANAALESLPEFANLPVEELITKLDQLPADKKTVLRNNAGGHANHSLFWKGLKKGTTLQGDLKAAIERDFGSVDNFKAEFEKAAASRFGSGWAWLVLKGDKLAVVSTANHDSPLMGEAISGASGFPIMGLDVWEHAYYLKFQNRRPDYIKEFWNVVNWDEAAARFAAKK | soluble
3 | TAGFYINSEISDYFWIKTEFNYVNRGYTHKEAGKTLKTNYYCIDVYPVTPAFHYKGAQIFAGPSVTLLVASNRDTLIGGEVKKIADNKLDGINRYDIGIMAGVEYEFNFGLNIGVRMVRGFTSLYEPVNSIQTQWFNQTYLFTLGYSI | not soluble
4 | TDFIWNLTWMGSTVTNKVLKLTGESPEIIKGVFSIKEGMPINTYYMAKSAGVDPATGAQLYWVYDKDDNGNITNEYISSDYQKAANSKYYSGSRIPDLYGSINTDFSYKNFDLSILGTYSIGGKVYDSLYAGSMEVMYAGNTWNKHALRRWQQPGDITDVPRIQIGGSYTTSDRFLVDASYFAIKNITLGYTIPKQWLKKAGLESVRIFGSVDNLALFSHLDGMDPQYNFKGETDYSYAPNKTYSVGFEINF | not soluble
5 | TDKTFFDAKMEEQAKRHAQHNNTESNLEPDIKNAPGGIRDMNQIGWIAKRHFRVNRIYDLVHLGFITEYELKVLEEAESFLWEIRHHLHLLSKRDENRLLFDHQREIAAKFGYTRAEGQPVNFAVEQFMKRYYRTAQQVSTLNEMLLAYFNESVITPRLPNYERKIEEINENFKLVDGKLAVQHHKVFSENPSAILELFYLLANHPEIEGIRARTLRLLIMAAKRID | not soluble
6 | TDQGSTGIYYISIEGLVYPIRLEKEYINSFSLSPDEQHFIASVTKPDRPSELYSIPLGQEEKQLTGANDKFVREHTISIPEEIQYATEDGVMVNGWLMRPAQMEGETTYPLILNIHGGPHMMYGHTYFHEFQVLAAKGYAVVYINPRGSHGYGQEFVNAVRGDYGGKDYDDVMQAVDEAIKRDPHIDPKRLGVTGGSYGGFMTNWIVGQTNRFKAAVTQRSISNWISFHGVSDIGYFFTDWQLEHDMFEDTEKLWDRSPLKYAANVETPLLILHGERDDRCPIEQAEQLFIALKKMGKETKLVRFPNASHNLSRTGHPRQRIKRLNYISSWFDQHL | not soluble
7 | TDTLTRDNGAVVGDNQNSQTAGAQGPVLLQDVQLLQKLQRFDRERIPERVVHARGTGVKGEFTASADISDLSKATVFKSGEKTPVFVRFSSVVHGNHSPETLRDPHGFATKFYTADGNWDLVGNNFPTFFIRDAIKFPDMVHAFKPDPRTNLDNDSRRFDFFSHVPEATRTLTLLYSNEGTPAGYRFMDGNGVHAYKLVNAKGEVHYVKFHWKSLQGIKNLDPKEVAQVQSKDYSHLTNDLVGAIKKGDFPKWDLYVQVLKPEELAKFDFDPLDATKIWPDVPEKKIGQMVLNKNVDNFFQETEQVAMAPANLVPGIEPSEDRLLQGRVFSYADTQMYRLGANGLSLPVNQPKVAVNNGNQDGALNTGHTTSGVNYEPSRLEPRPADDKARYSELPLSGTTQQAKITREQNFKQAGDLYRSYSAKEKTDLVQKFGESLADTLTESKNIMLSYLYKEDPNYGTRVAEVAKGDLSKVKSLAASLKD | soluble
8 | TEHLTLAFKIERPYDKVLKTISKKNLKNYIKETFNFFKSGYMKQNYLGSENDVIELDDVANIMFYGEGEVGDNHQKFMLIFDTGSANLWVPSKKCNSSGCSIKNLYDSSKSKSYEKDGTKVDITYGSGTVKGFFSKDLVTLGHLSMPYKFIEVTDTDDLEPIYSSVEFDGILGLGWKDLSIGSIDPIVVELKNQNKIDNALFTFYLPVHDVHAGYLTIGGIEEKFYEGNITYEKLNHDLYWQIDLDVHFGKQTMEKANVIVDSGTTTITAPSEFLNKFFANLNVIKVPFLPFYVTTCDNKEMPTLEFKSANNTYTLEPEYYMNPILEVDDTLCMITMLPVDIDSNTFILGDPFMRKYFTVFDYDKESVGFAIAKN | soluble
9 | TGLLLSLIALSLQAAQLTASVDRTRLNAGETVELTLETDDVTQFGKPDMSSLEASFEVRDTRQLNSLKTLDGSSQATTRWIVTLLPRETGSVIIPSLQLGELKSQPLTLQVMQSETKEPTSHLASIFIEASLDQDSVYVQAQAVLTLRVYHSVSLFDDSSLN | soluble
10 | THVYNYDIPQDPESYVHRIGRTGRAGATGTSVTFVTNWEMDYLRDVEHLTKKRLLPMKPPTEEEAFAGRAAMAEQSIEELVQKTDVAKFEEQVDHLLEQHDAKTLVAALLNEVTKSDASEIKVKITPERPLPR | not soluble
11 | TIYLYKNSIPSGKNKGENAILIDNKTIVEQLESAAKKEDKKSGESTTEQTQIQSKSVTEQKQPKIIGYTTTGNVHEDNKHIFPIDKLTSDRNFDRKIIVGATEETLDKSNTLQSNEAIVLPAPSKYKSTDTNKVTITQGPNIIGIHVNEKENAETQKFVDW | soluble
12 | TLAVAAGTGAYLIDKRQKQKAKEPALPAKAEDGSEPISQRELSWDDVQPVDIIGLEVGYRLIPLVDRDQGGELLERVKGVRKKLSQDFGFLIPAVHIRDNLELTPNSYRITLMGVAVGEAEIRPDQELAINPGQVYGMIDGEPTMDPAFGLEAVWIREEQREHAQALGYTVVDSSTVLATHLSQLLTNNASQLIGHEEVQNLLEMLGRSAPKLVENFVPDQLQLGVVVKVLQNLLNEAIPIRDIRTIVQTLAEYSSKSQEPDILTAAVRISLKRLIVQEINGIEPELPVITLIPELEQILHQTMQASGGESAGIEPGLAERLQSSLSHATQEQELKGEPAVLLTSGVLRSTLAKFVKNTIPNLRVLSYQEIPDEKQIRIVQAVGN | not soluble
13 | TLEPTQSVQNYMIQADSTEGSLQNDWLIMATKAAIQANQLDQADLLIKRLARQQLTEVQQAEWQLARATIQQKQGDYSQLLQLLNFKPWWKLPNEQWKDYYSLRADAYQSLNQPFEANRQLVAFSQYASSAEQREISSRIWMNFGSYSEYELTSLQTEPSEDVLDGWLQLAVYAKTLSGNLSQLKNTLERWLNENPSHPAAIYTPEEIQNILSLDIVKPNNTALLLPLTGKFAPQAQLIRDGFVFAMMNDRNRDPSATLTVIDTNAYSADEVKQRLINENIDFVVGPLQKENVELLQTTMDGSANSPAIPALALNIPEDVQPGTDICYLALSPEQEVAQAAKYLFSEGYSFPLILAPKGSYGERVVQAFNEEWSKYSSNKVATSYFGDKRQLQKDINDVFGLQESKQRIAQMQSLMRIKLETQPRSRRDVDAVYIVARSSELTLIKPFIEVAINPDAKPPKLFSNSRSNSGGATYEDLTGIIYSDIPLLVNPDPIVTAEMNELWADQSNMEKRLKALGMDAYKLIGELPQMKVVPGYSVSGQTGTLSIDNNCVVQRELSWAERGAL | not soluble
14 | TLPKPFIWAEPHFMVPKEKQVTICCQGNYGAVEYQLHFEGSLFAVDRPKPPERINKVKFYIPDMNSRMAGQYSCIYRVGELWSEPSNLLDLVVTEMYDTPTLSVHPGPEVISGEKVTFYCRLDTATSMFLLLKEGRSSHVQRGYGKVQAEFPLGPVTTAHRGTYRCFGSYNNHAWSFPSEPVKLLVTG | soluble
15 | TLPRPFFILAPMEDVTNIVFRHVVSEAARPDVFFTEFTNTESYCHPEGIHSVRGRLTFSDDEQPMVAHIWGDKPEQFREMSIGLADMGFKGIDLNMGCPVANVAKKGKGSGLILRPETAAEIIQASKAGGLPVSVKTRLGYYDIDEWRDWLKHVFEQDIANLSIHLRTRKEMSKVDAHWELIEAIKTLRDEIAPNTLLTINGDIPDRQTGLELANKYGIDGIMIGRGIFHNPFAFEKEPREHSSKELLGL | not soluble
16 | TPARDWNYTAPDGTVVEGWYYLPPQFDPSKKYPMLVYYYGGTSPINRTLEGHYSLAMYAAQGYVVYTLNPSGTTGYGQEYAARHVNAWGDRTADEIIGATKEFIRTHSFVNGKKVGCFGASYGGFMTQYLQTKTDIFAAAVSHAGISSISNYWGSGYWGMGYSTVASTDSYPWNNPDLYAGHSPLFRADKIHTPLLLLHGSVDTNVPTAESVNLYNALKILGREVEFIEFTEQDHFILEPERRIRWTNSICAWFARWL | not soluble
17 | TPYRAMYQYRPQNEDELELREGDRVDVMQQCDDGWFVGVSRRTQKFGTFPGNYVAPV | soluble
18 | TQAMEGLLHYINPAHAISLLSALNEERLKGQLCDVLLIVGDQKFRAHKNVLAASSEYFQSLFTNKENESQTVFQLDFCEPDAFDNVLNYIYSSSLFVEKSSLAAVQELGYSLGISFLTNIVSKTPQAPFPTCPNRKKVFVEDDENSSQKRSVIVCQSRNEAQGKTVSQNQPDVSHTSRPSPSIAVKANTNKPHVPKPIEPLHNLSLTEKSWPKDSSVVYAKSLEHSGSLDDPNRISLVKRNAVLPSKPLQDREAMDDKPGVSGQLPKGKALELALKRPRPPVLSVCSSSETPYLLKETNKGNGQGEDRNLLYYSKLGLVIPSSGSGSGNQSIDRSGPLVKSLLRRSLSMDSQVPVYSPSIDLKSSQGSSSVSSDAPGNVLCALSQKSSLKDCSEKTALDDRPQVLQPHRLRSFSASQSTDREGASPVTEVRIKTEPSSPLSDPSDIIRVTVGDAATTAAASSSSVTRDLSLKTEDDQKDMSRLPAKRRFQADRRLPFKKLKVNEHGSPVSEDNFEEGSSPTLLDADFPDSDLNKDEFGELEGTRPNKKFKCKHCLKIFRSTAGLHRHVNMYHNPEKPYACDICHKRFHTNFKVWTHCQTQHGIVKNPSPASSSHAVLDEKFQRKLIDIVREREIKKALIIKLRRGKPGFQGQSSSQAQQVIKRNLRSRAKGAYICTYCGKAYRFLSQFKQHIKMHPGEKPLGVNKVAKPKEHAPLASPVENKEVYQCRLCNAKLSSLLEQGSHERLCRNAAVCPYCSLRFFSPELKQEHESKCEYKKLTCLECMRTFKSSFSIWRHQVEVHNQNNMAPTENFSLPVLDHNGDVTGSSRPQSQPEPNKVNHIVTTKDDNVFSDSSEQVNFDSEDSSCLPEDLSLSKQLKIQVKEEPVEEAEEEAPEASTAPKEAGPSKEASLWPCEKCGKMFTVHKQLERHQELLCSVKPFICHVCNKAFRTNFRLWSHFQSHMSQASEESAHKESEVCPVPTNSPSPPPLPPPPPLPKIQPLEPDSPTGLSENPTPATEKLFVPQESDTLFYHAPPLSAITFKRQFMCKLCHRTFKTAFSLWSHEQTHN | soluble
19 | TQDWNWNIGYNISYNKNKITKMTFNDDPNYAGVIHGGIDGGTGYNALIHRVGEAFNSFYVFEQIYGPDGKPIEGAYVDQNGDNQINDADLICFKKAAPDVFMGLTSQLSYKNWDFSFALRGSFGNYVYNNVQSNREAYEGANMYDQTGFLKNRLTSARSTDFKNAQYRSSYYVQNASFVRMDNISLGYTFNKLFNDKQSARVYATVQNPFVITKYKGLDPEISGEGIDNNIYPRPRVFMIGLNLNF | not soluble
20 | TQKSLSNFLLSMQEAFSLGEEDRLLAVTTVAFDISALELYLPLISGAQIVIAKKETIREPQALAQMIENFDINIMQATPTLWHALVTSEPEKLRGLRVLVGGEALPSGLLQELQDLHCSVTNLYGPTETTIWSAAAFLEEGLKGVPPIGKP | not soluble
21 | TSGTLYLVGTPIGNLDDMTFRAIATLKNVDLIAAEDTRHTGKLLKHFQIATPQISYHDHNRHQRQAQLLEKLRSGLNIALVSDAGLPGISDPGFELVASAIDTEITVVPIPGV | not soluble
